In patent publication US20220017629A1 (SHANGHAI PHARMAEXPLORER, published 2022):

T1: OX40 (antigen of the competitive ELISA of Example 5) (UniProt P43489 29-214)
T1 sequence (looked up): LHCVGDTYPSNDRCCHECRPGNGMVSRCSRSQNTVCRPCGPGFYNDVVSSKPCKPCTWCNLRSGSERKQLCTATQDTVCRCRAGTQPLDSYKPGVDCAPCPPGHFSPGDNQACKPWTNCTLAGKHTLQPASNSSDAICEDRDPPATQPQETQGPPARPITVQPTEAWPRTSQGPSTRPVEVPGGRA

T2: human-derived OX40, full-length, on cells (human, UniProt P43489 29-277)
T2 construct: whole, on cells; also called hOX40; CHOK1-hOX40
T2 sequence (looked up): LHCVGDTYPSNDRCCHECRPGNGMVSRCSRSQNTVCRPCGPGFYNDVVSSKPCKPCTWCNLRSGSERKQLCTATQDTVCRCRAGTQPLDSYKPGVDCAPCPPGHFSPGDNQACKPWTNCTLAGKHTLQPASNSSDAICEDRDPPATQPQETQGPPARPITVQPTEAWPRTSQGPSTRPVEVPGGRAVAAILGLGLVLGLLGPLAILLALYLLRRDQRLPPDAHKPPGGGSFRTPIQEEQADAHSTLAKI


Legend:
[1] = molecular target: T1, OX40 (antigen of the competitive ELISA …); experiment: competitive ELISA; competitor MEDI0562
[2] = molecular target: T1, OX40 (antigen of the competitive ELISA …); experiment: competitive ELISA; competitor BMS-986178
[3] = molecular target: T1, OX40 (antigen of the competitive ELISA …); experiment: competitive ELISA; competitor PF-04518600
[4] = molecular target: T1, OX40 (antigen of the competitive ELISA …); experiment: competitive ELISA; competitor MOXR0916
[5] = molecular target: T2, human-derived OX40, full-length, on …; experiment: FACS on cells expressing human OX40 (CHOK1-hOX40)

| Binder | percentage of competition [1] [%] | percentage of competition [2] [%] | percentage of competition [3] [%] | percentage of competition [4] [%] | binding result [5] |
| --- | --- | --- | --- | --- | --- |
| MAb049 (antibody, IgG1, V domains shown) VH: EVQLQQSGPELVKPGASVKISCKASGHTLTDYYMNWVKQSHGKSPEWIGDINPNNDGIDYNQKFRGKAILTVDKSSSSFYMELRSLTSEDSAVYYCVGFVRGYFVSWGQGTTLTVSS VL: DIQMTQTTSSLSASLGDRVTINCRASQDISNYLNWYQQKPDGTVKLLIYYTSRLRSGVPSRFSGSGSGTDYSLTINNLDQEDFATYFCQQGNTLPWTFGGGTKLEI | 97 | 0 | -2 | 90 | – |
| MAb034 (antibody, IgG1, V domains shown) VH: EVQLQQSGPVLVKPGASVKMSCKASGYTFTDFYMNWMRQSHGKSLEWIGVIDPYNGNTSYNQKFKGKATLTVDKSSSTAYMELNSLTSEDSAVYYCARGNYYYYAMDYWGQGTSVTVSS VL: DIVLTQSPASLAVSLGQRATISCRASESVSIHGTHLMYWYQQKPGQPPKLLIYAASNLESGVPARFSGSGSETDFTLNIHPVEEEDAATFFCQQSIEDPPTFGGGTKLEIK | 13 | 93 | 5 | 0 | – |
| MAb033 (antibody, IgG1, V domains shown) VH: QVQLQQSGAELVRPGTAVRVSCKASGYAFTNYFIEWVKQRPGQGLEWIGVINPGSGDTYYSEKFQGKATLTADKSSSTAYMQLSSLTSEDSAVYFCAREDDYSWFTYWGQGTLVTVSA VL: DIVLTQSPASLAVSLGQRATISCRASENVDNYGISFMHWYRQKPGQPPKLLIYRASNLESGIPARFSGSGSRTDFTLTINPVETDDVATYYCQQSNKDPYTFGGGTKLEIK | 7 | 81 | -7 | -1 | – |
| MAb041 (antibody, IgG1, V domains shown) VH: EVQLVESGGGLVKPGGSLKLSCAVSGFTFSNSAMSWVRQTPEKRLEWVATITDGGDYTYYSDNVKGRFTISRDNAKNNLYLQMSHLKSEDTAMYYCVRGISYWGQGTLVTVS VL: DIVLTQSPASLAVSLGQRATISCRASKSVSTSSDSYMHWYQQKPGQPPKLLIKYASNLESGVPVRFSGSGSGTDFTLNIHPVEEEDAATYYCQHSREFPWTFGGGTKLEIK | 2 | -6 | -8 | 1 | – |
| MAb047 (antibody, IgG2c, V domains shown) VH: EVQLVESGGGLVKPGGSLKLSCAASGFTFSDYGMYWIRQAPEKGLEWVAYISNGGSSIYYADTVKGRFTVSRDNAKNTLFLQMTSLRSEDTAIYYCARGGELGFAYWGQGTLVTVSA VL: DIQMTQSPASLSVSVGETVTITCRASENIYSNLAWYQQKQGKSPQLLVYAAINLVEGVPSRFSGSGSGTQYSLKINSLQSEDFGSYFCQHFWGLPYTFGGGTKLE | 97 | 0 | -2 | -3 | – |
| MAb035 (antibody, IgG1, V domains shown) VH: QVQLQQSGAELVRPGASVTLSCKASDYTFTDYEMHWVYQTPVHGLEWIGAIDPETGGTAYNQKFKDKAILTADKSSNTAYMELRSLTSEDSAVYFCTKTGYQFDYWGQGTTLTVSS VL: DIVMTQSQKFMSTSVGDRVSVTCKASQNVGSNVAWYQQKPGQSPKALIYSASYRYSGVPDRFAGSGSGTDFTLTISNVQSEDLADYFCQQYNSHPYTFGGGTKLEIK | 59 | 90 | -5 | 3 | – |

Other lines, results leading:

| percentage of competition [1] [%] | percentage of competition [2] [%] | percentage of competition [3] [%] | percentage of competition [4] [%] | binding result [5] | Binder |
| --- | --- | --- | --- | --- | --- |
| 11 | 2 | 93 | -2 | – | MAb053 (antibody, IgG2c, V domains shown) VH: QVQLKQSGPGLVQPSQSLSIICTVSGFSLSDYGVMWVRQSPGKGLEWLGVIWSGGSTDYNAAFTSRLSISRDNSKRQVIFKMNSLQAEDTAIHYCVRETMDYWGQGTSVTVS VL: DIQMTQTTSSLSASLGDRVTISCRASQDISNYLNWYQQRPDGTVKRLIYYTSRLHSGVPSRFSGSGSGTDYSLTISSLEQEDIATYFCQQAHTLPWTFGGGTKLEIK |
| 16 | 3 | 95 | -3 | – | MAb055 (antibody, IgG1, V domains shown) VH: QVQLKQSGPGLLQPSQSLSITCTVSGFSLDEYGVHWFRQSPGKGLEWLGVIWSGGSTDYNAAFISRLSIRKDNSKSQIFFNMNSLQADDTAIYYCVREEWEYWGQGTTLTVS VL: DIQMTQTTSSLSASLGDRVTISCRPSQDIDNYLNWFQQRPDGTIKLLIYYTSRLHSGVPSRFSGSGSGTDYSLTINNLEQEDIATYFCQQAHTLPYTFGGGTKLEIK |
| 26 | -4 | 11 | -3 | – | MAb058 (antibody, IgG1, V domains shown) VH: EVQLQQSGPVLVKPGAAVKMSCKASGYIFTDYYIHWVKLSRGESLEWIGLINPYNGGTNYNQQFTGKATLTVDKSSSTAYVELNSLTSGDSAVYYCVRRTGYFDYWGQGTTLTVSS VL: DVVMTQTPLSLPVSLGDQASISCRSSQSLVHSNGNTYLHWYLQKPGQSPKLLIYKVSNRFSGVPDRFSGSGSGTDFTLKISRVEAEDLGVYFCSQTTHVPYTFGGGTKLEIK |
| – | – | – | – | binds | Humab035-24 (antibody, V domains shown) VH: QVQLVQSGAEVKKPGASVKVSCKASDYTFTDYEMHWVRQAPGQGLEWIGAIDPETGGTAYNQKFKDRVTMTADTSTSTVYMELSSLRSEDTAVYYCAKTGYQFDYWGQGTTVTVSS VL: DIQMTQSPSSVSASVGDRVTITCKASQNVGSNVAWYQQKPGKAPKALIYSASYRYSGVPSRFSGSGSGTDFTLTISSLQPEDFATYYCQQYNSHPYTFGQGTKLEIK |
| 96 | 1 | 4 | 90 | – | MAb064 (antibody, IgG2c, V domains shown) VH: QVQLKESGPGLVAPSQTLSITCSVSGFSLTNYAVSWVRQPPGKGLEWLGVMWGDGNTNYHSTLISRLSISKDNSKSQVFLKLNSLQTDDTATYYCARSSGWYFDVWGTGTTVTVSS VL: DIQMTQTTPSLSVTLGDRVTIRCRASQDINNYLNWYQQKPDGTVKLLIYYTSESRSGVPSRFSGSGSGTDYSLTISNLEQEDIATYFCQQGYALPPAFGGGTKLEIK |
